Test results as given in US9206411B2, “Staphylococcal Phage2638A endolysin amidase domain is lytic for Staphylococcus aureus” (priority 2012, dated 2015).

Key:
Format in all cases: cell-based
S. aureus Newman sm^r = assay: Plate lysis, susceptibility of strains to 2638A (Table 1)
Method: (§1) Purified proteins for each construct were diluted in sterile nickel column elution buffer, and 6 μL of lysostaphin (11 μg) or the constructs (0.2 nmoles or ˜11 μg for the repaired construct 2638A 1-180Mut-486) was spotted onto a freshly spread lawn of S. aureus strain NRS119 (SA LinR #12; linezolid resistant) growing cells that had air dried for 30 min on tryptic soy agar (TSA) plates. L=[…] Lysostaphin (Sigma); Spot 1=11 μg; all other constructs are 0.2 nmoles (˜11 μg for the repaired construct 2638A 1-180Mut-486) […]. The spotted plates were air dried for 10 min in a laminar flow hood and incubated overnight in a 37° C. environment. Scoring of the cleared spots occurred within 20 h of plating the cells.
(§2) The Plate Lysis assay results (FIG. 3) agree with the turbidity reduction assay. Each of the M23 peptidase dependent or SH3b-truncating constructs showing weak activity on S. aureus strain Newman strain. In addition to the Plate Lysis results in FIG. 3, we have also examined numerous strains with reduced but real lytic activity (Table 1). However, the plate lysis results with the 2638A endolysin constructs are extremely novel in appearance. Plate lysis results are routinely visualized as a discrete cleared spot on a lawn of bacteria after a single overnight of culture. […] In contrast, the 2638A endolysin is unique in that sometimes this cleared zone requires multiple days to appear. […] Thus, there is also a likelihood that the enzyme might work preferentially on late log or stationary phase cells in the plate lysis assay, as the 3 day old culture is likely not growing as quickly as the freshly-plated overnight culture.

S. aureus ALC 1342 = assay: as above
Method: as §1, §2

S. aureus Reynolds (CP8) = assay: as above
Method: as §1, §2

S. aureus Reynolds (CP-) = assay: as above
Method: as §1, §2

S. aureus Tanji 31 = assay: as above
Method: as §1, §2

S. aureus Tanji 19 = assay: as above
Method: as §1, §2

S. aureus NRS 384 (MRSA) = assay: as above; parameters: key to Susceptibility to lysis by 2638A, day 3+: − = >100 pmol; (+) = very faint lysis zone; + = 100 pmol; ++ = 10 pmol; +++ = 1 pmol
Method: as §1, §2

S. simulans = assay: as above; parameters: key to Susceptibility to lysis by 2638A, day 3+: − = >100 pmol; (+) = very faint lysis zone; + = 100 pmol; ++ = 10 pmol; +++ = 1 pmol
Method: as §1, §2

S. aureus Tanji 21 = assay: as above; parameters: key to Susceptibility to lysis by 2638A, day 3+: − = >100 pmol; (+) = very faint lysis zone; + = 100 pmol; ++ = 10 pmol; +++ = 1 pmol
Method: as §1, §2

S. aureus Tanji 47 = assay: as above; parameters: key to Susceptibility to lysis by 2638A, day 3+: − = >100 pmol; (+) = very faint lysis zone; + = 100 pmol; ++ = 10 pmol; +++ = 1 pmol
Method: as §1, §2

S. aureus MN8 ΔsarA = assay: as above; parameters: key to Susceptibility to lysis by 2638A, day 1: − = >100 pmol; (+) = very faint lysis zone; + = 100 pmol; ++ = 10 pmol; +++ = 1 pmol
Method: as §1, §2

S. aureus NRS 383 (MRSA) = assay: as above; parameters: key to Susceptibility to lysis by 2638A, day 1: − = >100 pmol; (+) = very faint lysis zone; + = 100 pmol; ++ = 10 pmol; +++ = 1 pmol
Method: as §1, §2

[1] = tested on: S. aureus strain NRS119 (SA LinR #12; linezolid resistant); assay: Plate lysis assay (FIG. 3); conditions: lawn on TSA plates, observed over days
Method: as §1
(§3) The Plate Lysis assay results (FIG. 3) agree with the turbidity reduction assay. Each of the M23 peptidase dependent or SH3b-truncating constructs showing weak activity on S. aureus strain Newman strain. In addition to the Plate Lysis results in FIG. 3, we have also examined numerous strains with reduced but real lytic activity (Table 1). However, the plate lysis results with the 2638A endolysin constructs are extremely novel in appearance. Plate lysis results are routinely visualized as a discrete cleared spot on a lawn of bacteria after a single overnight of culture. […]

S. aureus Tanji 29 = assay: Plate lysis, susceptibility of strains to 2638A (Table 1); parameters: key: − = >100 pmol; (+) = very faint lysis zone; + = 100 pmol; ++ = 10 pmol; +++ = 1 pmol
Method: as §1, §3

B1: 2638A Endolysin: 486 amino acid staphylococcal phage 2638A endolysin (SEQ ID NO:4), C-terminally 6×His-tagged; M23 peptidase, amidase, SH3b domains (protein)
chain: MLTAIDYLTKKGWKISSDPRTYDGYPKNYGYRNYHENGINYDEFCGGYHRAFDVYSNETNDVPAVTSGTVIEANDYGNFGGTFVIRDANDNDWIYGHLQRGSMRFVVGDKVNQGDIIGLQGNSNYYDNPMSVHLHLQLRPKDAKKDEKSQVCSGLAMEKYDITNLNAKQDKSKNGSVKELKHIYSNHIKGNKITAPKPSIQGVVIHNDYGSMTPSQYLPWLYARENNGTHVNGWASVYANRNEVLWYHPTDYVEWHCGNQWANANLIGFEVCESYPGRISDKLFLENEEATLKVAADVMKSYGLPVNRNTVRLHNEFFGTSCPHRSWDLHVGKGEPYTTTNINKMKDYFIKRIKHYYDGGKLEVSKAATIKQSDVKQEVKKQEAKQIVKATDWKQNKDGIWYKAEHASFTVTAPEGIITRYKGPWTGHPQAGVLQKGQTIKYDEVQKFDGHVWVSWETFEGETVYMPVRTWDAKTGKVGKLWGEIKLEHHHHHH
modifications: C-terminal His6 tag; Mutated Phage 2638a
notes: M23 peptidase, amidase, SH3b domains
- Susceptibility to lysis by 2638A, day 1 (S. aureus Newman sm^r; day 1): − (− = >100 pmol)
- Susceptibility to lysis by 2638A, day 3+ (S. aureus Newman sm^r; day 3+): − (− = >100 pmol)
- Susceptibility to lysis by 2638A, day 1 (S. aureus ALC 1342; day 1): − (− = >100 pmol)
- Susceptibility to lysis by 2638A, day 3+ (S. aureus ALC 1342; day 3+): − (− = >100 pmol)
- Susceptibility to lysis by 2638A, day 1 (S. aureus Reynolds (CP8); day 1): − (− = >100 pmol)
- Susceptibility to lysis by 2638A, day 3+ (S. aureus Reynolds (CP8); day 3+): − (− = >100 pmol)
- Susceptibility to lysis by 2638A, day 1 (S. aureus Reynolds (CP-); day 1): − (− = >100 pmol)
- Susceptibility to lysis by 2638A, day 3+ (S. aureus Reynolds (CP-); day 3+): − (− = >100 pmol)
- Susceptibility to lysis by 2638A, day 1 (S. aureus Tanji 31; day 1): − (− = >100 pmol)
- Susceptibility to lysis by 2638A, day 3+ (S. aureus Tanji 31; day 3+): − (− = >100 pmol)
- Susceptibility to lysis by 2638A, day 1 (S. aureus Tanji 19; day 1): − (− = >100 pmol)
- Susceptibility to lysis by 2638A, day 3+ (S. aureus Tanji 19; day 3+): + (+ = 100 pmol)
- Susceptibility to lysis by 2638A, day 1 (S. aureus NRS 384 (MRSA); day 1): − (− = >100 pmol)
- Susceptibility to lysis by 2638A, day 3+ (S. aureus NRS 384 (MRSA); day 3+): (+)
- Susceptibility to lysis by 2638A, day 1 (S. simulans; day 1): − (− = >100 pmol)
- Susceptibility to lysis by 2638A, day 3+ (S. simulans; day 3+): (+)
- Susceptibility to lysis by 2638A, day 1 (S. aureus Tanji 21; day 1): − (− = >100 pmol)
- Susceptibility to lysis by 2638A, day 3+ (S. aureus Tanji 21; day 3+): (+)
- Susceptibility to lysis by 2638A, day 1 (S. aureus Tanji 47; day 1): − (− = >100 pmol)
- Susceptibility to lysis by 2638A, day 3+ (S. aureus Tanji 47; day 3+): (+)
- Susceptibility to lysis by 2638A, day 1 (S. aureus MN8 ΔsarA; day 1): (+)
- Susceptibility to lysis by 2638A, day 3+ (S. aureus MN8 ΔsarA; day 3+): +++ (+++ = 1 pmol)
- Susceptibility to lysis by 2638A, day 1 (S. aureus NRS 383 (MRSA); day 1): (+)
- Susceptibility to lysis by 2638A, day 3+ (S. aureus NRS 383 (MRSA); day 3+): ++ (++ = 10 pmol)
- appearance and persistence of the cleared zone in plate lysis [1]: very broad, ill-defined region of clearing that grows with time, up to four days
- Susceptibility to lysis by 2638A, day 1 (S. aureus Tanji 29): (+)
